Where two headings read alike, the source gives them in different places.
T1: Recombinant mouse VEGF165 (mouse, UniProt Q00731-2 27-190)
T1 construct: also called mVEGF
T1 sequence (looked up): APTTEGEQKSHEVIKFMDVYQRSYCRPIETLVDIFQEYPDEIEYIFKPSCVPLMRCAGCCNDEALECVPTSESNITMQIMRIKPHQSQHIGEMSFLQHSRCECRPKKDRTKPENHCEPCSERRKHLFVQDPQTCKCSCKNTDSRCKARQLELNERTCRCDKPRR


Legend:
[1] = target: T2, biotin-DLL4-hFc (UniProt Q9NR61 27-522, limits assumed, biotinylated (site not stated)); test: Bispecific bridging ELISA: antibody pre-incubated with biotin-DLL4-hFc, captured on VEGF (ATGEN)-coated plate, streptavidin-HRP; potency relative to a reference anti-VEGF/anti-DLL4 bispecific antibody
T2 construct: not shown: human Fc (hFc)
T2 sequence (Q9NR61 27-522 limits assumed): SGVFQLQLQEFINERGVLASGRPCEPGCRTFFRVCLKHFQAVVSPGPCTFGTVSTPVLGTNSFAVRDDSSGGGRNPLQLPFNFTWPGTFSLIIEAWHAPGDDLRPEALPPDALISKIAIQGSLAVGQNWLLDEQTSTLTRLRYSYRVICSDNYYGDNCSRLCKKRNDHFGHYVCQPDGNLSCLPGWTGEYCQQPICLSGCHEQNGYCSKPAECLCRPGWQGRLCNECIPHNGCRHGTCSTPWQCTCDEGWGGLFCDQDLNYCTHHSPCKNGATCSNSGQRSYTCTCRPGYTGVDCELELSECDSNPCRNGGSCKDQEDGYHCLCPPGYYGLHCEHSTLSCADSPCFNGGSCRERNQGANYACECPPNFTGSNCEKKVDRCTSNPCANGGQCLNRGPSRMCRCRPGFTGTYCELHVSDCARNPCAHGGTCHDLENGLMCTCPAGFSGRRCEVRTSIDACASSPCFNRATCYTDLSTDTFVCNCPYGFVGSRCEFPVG
Procedure: (§1) VEGF (ATGEN, South Korea) was coated onto Nunc maxisorb plates at 2 ug/ml (100 μl/well) and incubated overnight at 2-8° C. Bispecific antibodies 219R45-MB-21M18, 219R45-MB-21R79, 219R45-MB-21R75, and 219R45-MB-21R83 were diluted in blocking buffer (lx PBS, 0.1% gelatin, 0.1% Polysorbate-20, pH 7.4) containing 2 μg/ml biotin-DLL4-hFc. The antibodies were serially diluted 3-fold from 500 ng/ml to 0.008 ng/ml. The antibody samples were incubated for 2 hours in blocking buffer containing the biotin-DLL4-hFc. After incubation, the antibody samples were transferred to the VEGF-coated assay plate (100 ul/well) and incubated for 2 hours. Streptavidin-HRP (Jackson ImmunoResearch, West Grove, Pa.) was added to each well and incubated for 1 hr. TMB substrate was added to the wells with a 10 minute color development and the reaction was stopped with 2M sulfuric acid. Absorbance was read at 450-650 nm and the data analyzed using the 4-parameter fit within the Softmax Pro analysis program (Molecular Devices, Sunnyvale, Calif.).

[2] = target: T2, biotin-DLL4-hFc; test: bispecific sandwich ELISA: antibody pre-incubated with 2 ug/ml biotin-DLL4-hFc, captured on VEGF-coated plate, detected with streptavidin-HRP
Procedure: FIG. 7. Bispecific antibody ELISA. Bispecific antibodies 219R45-MB-21M18, 219R45-MB-21R79, 219R45-MB-21R75, and 219R45-MB-21R83 were diluted in blocking buffer (lx PBS, 0.1% gelatin, 0.1% Polysorbate-20, pH 7.4) containing 2 μg/ml biotin-DLL4-hFc. The antibodies were serially diluted 3-fold from 500 ng/ml to 0.008 ng/ml. The antibody samples were incubated for 2 hours in blocking buffer containing the biotin-DLL4-hFc. After incubation, the antibody samples were transferred to a VEGF-coated assay plate (100 ul/well) and incubated for 2 hours. Streptavidin-HRP was added to each well and incubated for 1 hr. TMB substrate was added to the wells with a 10 minute color development and the reaction was stopped with 2M sulfuric acid. Absorbance was read at 450-650 nm and the data analyzed using the 4-parameter fit within the Softmax Pro analysis program.
as §1

[3] = target: T3, Recombinant human DLL4-Fc (human, UniProt Q9NR61 27-522, limits assumed); test: SPR (Biacore 2000), human DLL4-Fc amine-coupled on CM5 chip, antibody as analyte
T3 construct: also called hDLL4; hDLL4-Fc; not shown: Fc portion
T3 sequence (Q9NR61 27-522 limits assumed): as above
Procedure: (§2) The KDs of parental antibodies anti-VEGF 219R45 (IgG format), anti-DLL4 21R79 (IgG format), anti-DLL4 21M18 (IgG format) and bispecific antibodies 219R45-MB-21M18 and 219R45-MB-21R79 were determined using a Biacore 2000 system from Biacore LifeSciences (GE Healthcare). Recombinant human DLL4-Fc or mouse DLL4-Fc proteins were immobilized on CM5 carboxyl chips using standard amine-based chemistry (NHS/EDC) and blocked with ethanolamine Recombinant human VEGF₁₆₅ or mouse VEGF₁₆₅ were biotinylated and immobilized on streptavidin chips. The antibodies were serially diluted 2-fold from 100 nM to 0.78 nM in HBS-P (0.01M HEPES pH7.4, 0.15M NaCl, 0.005% v/v Polysorbate 20). For each antibody, all 8 dilutions were sequentially injected over a specific chip. Kinetic data were collected over time and were fit using the simultaneous global fit equation to yield affinity constants (KD values) for each bispecific antibody.
Several additional anti-DLL4 antibodies were identified that had binding affinities intermediate to the KDs of 21M18 and 21R79. Two of these anti-DLL4 antibodies were used to produce anti-VEGF/anti-DLL4 bispecific antibodies 219R45-MB-21R75 and 219R45-MB-21R83. Using the Biacore 2000 system as described above, the KDs of the bispecific antibodies 219R45-MB-21R75 and 219R45-MB-21R83 to human DLL4 were determined.

[4] = target: T4, Recombinant human VEGF165 (human, UniProt P15692-4 27-191); test: SPR (Biacore 2000), biotinylated human VEGF165 on streptavidin chip, antibody as analyte
T4 construct: also called hVEGF; hVEGF165
Procedure: as §2

[5] = target: T1, Recombinant mouse VEGF165; test: SPR (Biacore 2000), biotinylated mouse VEGF165 on streptavidin chip, antibody as analyte
Procedure: as §2

[6] = target: T3, Recombinant human DLL4-Fc; test: SPR (Biacore 2000), human DLL4-Fc amine-coupled on CM5 chip, antibody as analyte; remark: listed apart in the source
Procedure: as §2

Relative Potency (%) [1] [%]	EC50 (read off the curve) [2] [ng/mL]	Kd [3] [nM]	Kd [4] [nM]	Kd [5] [nM]	Kd [6] [nM]	Binder
222	~1	1.3				anti-VEGF/anti-DLL4 bispecific antibody 219R45-MB-21R83 (bispecific antibody, human IgG2, Monovalent/bispecific IgG2 heterodimer with charge-modified CH3 domains and two identical light chains) heavy 1: QVQLVQSGAEVKKPGASVKVSCKASGYTFTNYWMHWVRQAPGQGLEWMGDINPSNGRTSYKEKFKRRVTLSVDKSSSTAYMELSSLRSEDTAVYFCTIHYDDKYYPLMDYWGQGTLVTVSSASTKGPSVFPLAPCSRSTSESTAALGCLVKDYFPEPVTVSWNSGALTSGVHTFPAVLQSSGLYSLSSVVTVPSSNFGTQTYTCNVDHKPSNTKVDKTVERKCCVECPPCPAPPVAGPSVFLFPPKPKDTLMISRTPEVTCVVVDVSHEDPEVQFNWYVDGVEVHNAKTKPREEQFNSTFRVVSVLTVVHQDWLNGKEYKCKVSNKGLPAPIEKTISKTKGQPREPQVYTLPPSREKMTKNQVSLTCLVKGFYPSDIAVEWESNGQPENNYKTTPPMLKSDGSFFLYSKLTVDKSRWQQGNVFSCSVMHEALHNHYTQKSLSLSPGK heavy 2: QVQLVQSGAEVKKPGASVKISCKASGYSFTAYYIHWVKQAPGQGLEWIGYISNYNRATNYNQKFKGRVTFTTDTSTSTAYMELRSLRSDDTAVYYCARDYDYDVGMDYWGQGTLVTVSSASTKGPSVFPLAPCSRSTSESTAALGCLVKDYFPEPVTVSWNSGALTSGVHTFPAVLQSSGLYSLSSVVTVPSSNFGTQTYTCNVDHKPSNTKVDKTVERKCCVECPPCPAPPVAGPSVFLFPPKPKDTLMISRTPEVTCVVVDVSHEDPEVQFNWYVDGVEVHNAKTKPREEQFNSTFRVVSVLTVVHQDWLNGKEYKCKVSNKGLPAPIEKTISKTKGQPREPQVYTLPPSREEMTKNQVSLTCLVEGFYPSDIAVEWESNGQPENNYKTTPPMLDSDGSFFLYSELTVDKSRWQQGNVFSCSVMHEALHNHYTQKSLSLSPGK light: DIVMTQSPDSLAVSLGERATISCRASESVDNYGISFMKWFQQKPGQPPKLLIYAASNQGSGVPDRFSGSGSGTDFTLTISSLQAEDVAVYYCQQSKEVPWTFGGGTKVEIKRTVAAPSVIFPPSDEQLKSGTASVVCLLNNFYPREAKVQWKVDNALQSGNSQESVTEQDSKDSTYSLSSTLTLSKADYEKHKVYACEVTHQGLSSPVTKSFNRGEC
67	~5	16	0.36	25.5	16	anti-VEGF/anti-DLL4 bispecific antibody 219R45-MB-21M18 (bispecific antibody, human IgG2, Monovalent/bispecific (MB) IgG2 heterodimer with charge-modified CH3 domains and two identical light chains) heavy 1: QVQLVQSGAEVKKPGASVKVSCKASGYTFTNYWMHWVRQAPGQGLEWMGDINPSNGRTSYKEKFKRRVTLSVDKSSSTAYMELSSLRSEDTAVYFCTIHYDDKYYPLMDYWGQGTLVTVSSASTKGPSVFPLAPCSRSTSESTAALGCLVKDYFPEPVTVSWNSGALTSGVHTFPAVLQSSGLYSLSSVVTVPSSNFGTQTYTCNVDHKPSNTKVDKTVERKCCVECPPCPAPPVAGPSVFLFPPKPKDTLMISRTPEVTCVVVDVSHEDPEVQFNWYVDGVEVHNAKTKPREEQFNSTFRVVSVLTVVHQDWLNGKEYKCKVSNKGLPAPIEKTISKTKGQPREPQVYTLPPSREKMTKNQVSLTCLVKGFYPSDIAVEWESNGQPENNYKTTPPMLKSDGSFFLYSKLTVDKSRWQQGNVFSCSVMHEALHNHYTQKSLSLSPGK heavy 2: QVQLVQSGAEVKKPGASVKISCKASGYSFTAYYIHWVKQAPGQGLEWIGYISSYNGATNYNQKFKGRVTFTTDTSTSTAYMELRSLRSDDTAVYYCARDYDYDVGMDYWGQGTLVTVSSASTKGPSVFPLAPCSRSTSESTAALGCLVKDYFPEPVTVSWNSGALTSGVHTFPAVLQSSGLYSLSSVVTVPSSNFGTQTYTCNVDHKPSNTKVDKTVERKCCVECPPCPAPPVAGPSVFLFPPKPKDTLMISRTPEVTCVVVDVSHEDPEVQFNWYVDGVEVHNAKTKPREEQFNSTFRVVSVLTVVHQDWLNGKEYKCKVSNKGLPAPIEKTISKTKGQPREPQVYTLPPSREEMTKNQVSLTCLVEGFYPSDIAVEWESNGQPENNYKTTPPMLDSDGSFFLYSELTVDKSRWQQGNVFSCSVMHEALHNHYTQKSLSLSPGK light: DIVMTQSPDSLAVSLGERATISCRASESVDNYGISFMKWFQQKPGQPPKLLIYAASNQGSGVPDRFSGSGSGTDFTLTISSLQAEDVAVYYCQQSKEVPWTFGGGTKVEIKRTVAAPSVIFPPSDEQLKSGTASVVCLLNNFYPREAKVQWKVDNALQSGNSQESVTEQDSKDSTYSLSSTLTLSKADYEKHKVYACEVTHQGLSSPVTKSFNRGEC
422	~0.8	5.1				anti-VEGF/anti-DLL4 bispecific antibody 219R45-MB-21R75 (bispecific antibody, human IgG2, Monovalent/bispecific IgG2 heterodimer with charge-modified CH3 domains and two identical light chains) heavy 1: QVQLVQSGAEVKKPGASVKVSCKASGYTFTNYWMHWVRQAPGQGLEWMGDINPSNGRTSYKEKFKRRVTLSVDKSSSTAYMELSSLRSEDTAVYFCTIHYDDKYYPLMDYWGQGTLVTVSSASTKGPSVFPLAPCSRSTSESTAALGCLVKDYFPEPVTVSWNSGALTSGVHTFPAVLQSSGLYSLSSVVTVPSSNFGTQTYTCNVDHKPSNTKVDKTVERKCCVECPPCPAPPVAGPSVFLFPPKPKDTLMISRTPEVTCVVVDVSHEDPEVQFNWYVDGVEVHNAKTKPREEQFNSTFRVVSVLTVVHQDWLNGKEYKCKVSNKGLPAPIEKTISKTKGQPREPQVYTLPPSREKMTKNQVSLTCLVKGFYPSDIAVEWESNGQPENNYKTTPPMLKSDGSFFLYSKLTVDKSRWQQGNVFSCSVMHEALHNHYTQKSLSLSPGK heavy 2: QVQLVQSGAEVKKPGASVKISCKASGYSFTAYYIHWVKQAPGQGLEWIGYIAGYKDATNYNQKFKGRVTFTTDTSTSTAYMELRSLRSDDTAVYYCARDYDYDVGMDYWGQGTLVTVSSASTKGPSVFPLAPCSRSTSESTAALGCLVKDYFPEPVTVSWNSGALTSGVHTFPAVLQSSGLYSLSSVVTVPSSNFGTQTYTCNVDHKPSNTKVDKTVERKCCVECPPCPAPPVAGPSVFLFPPKPKDTLMISRTPEVTCVVVDVSHEDPEVQFNWYVDGVEVHNAKTKPREEQFNSTFRVVSVLTVVHQDWLNGKEYKCKVSNKGLPAPIEKTISKTKGQPREPQVYTLPPSREEMTKNQVSLTCLVEGFYPSDIAVEWESNGQPENNYKTTPPMLDSDGSFFLYSELTVDKSRWQQGNVFSCSVMHEALHNHYTQKSLSLSPGK light: DIVMTQSPDSLAVSLGERATISCRASESVDNYGISFMKWFQQKPGQPPKLLIYAASNQGSGVPDRFSGSGSGTDFTLTISSLQAEDVAVYYCQQSKEVPWTFGGGTKVEIKRTVAAPSVIFPPSDEQLKSGTASVVCLLNNFYPREAKVQWKVDNALQSGNSQESVTEQDSKDSTYSLSSTLTLSKADYEKHKVYACEVTHQGLSSPVTKSFNRGEC

From patent publication US20180305449A1 (ONCOMED PHARMACEUTICALS, published 2018)
